Target: TrkB receptor (mouse neuromuscular junction) (mouse) (UniProt P15209)
Test: cell-based or functional assay

Chain of UniProt P15209 (P15209 32-821): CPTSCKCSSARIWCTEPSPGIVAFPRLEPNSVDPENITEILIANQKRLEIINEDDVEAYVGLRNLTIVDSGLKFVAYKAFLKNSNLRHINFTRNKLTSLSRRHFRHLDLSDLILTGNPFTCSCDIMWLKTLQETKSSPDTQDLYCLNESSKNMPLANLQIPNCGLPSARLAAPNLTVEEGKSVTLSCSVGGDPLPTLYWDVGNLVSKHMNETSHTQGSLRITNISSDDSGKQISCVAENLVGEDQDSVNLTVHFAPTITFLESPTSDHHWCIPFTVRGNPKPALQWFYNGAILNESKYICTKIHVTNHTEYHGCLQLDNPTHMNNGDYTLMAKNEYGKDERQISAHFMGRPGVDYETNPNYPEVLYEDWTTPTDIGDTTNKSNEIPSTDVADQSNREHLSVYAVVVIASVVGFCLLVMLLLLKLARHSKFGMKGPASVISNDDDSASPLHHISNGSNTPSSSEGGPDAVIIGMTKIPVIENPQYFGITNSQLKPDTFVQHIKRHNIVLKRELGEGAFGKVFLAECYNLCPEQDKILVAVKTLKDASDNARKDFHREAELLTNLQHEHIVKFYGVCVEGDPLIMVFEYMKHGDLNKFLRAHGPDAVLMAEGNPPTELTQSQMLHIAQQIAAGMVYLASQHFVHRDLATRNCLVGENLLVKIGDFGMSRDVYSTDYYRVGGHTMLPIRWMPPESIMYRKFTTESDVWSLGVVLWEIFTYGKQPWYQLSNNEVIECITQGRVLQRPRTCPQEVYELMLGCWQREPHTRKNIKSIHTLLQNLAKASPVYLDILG

Substance	elevation in the level of GFP-TTC concentration at the NMJ (100 ng BDNF) [fold]	elevation in the level of GFP-TTC concentration at the NMJ (250 ng BDNF) [fold]	increase of GFP-TTC signal at the NMJ after BoTx/A block [fold]	GFP-TTC localization at the NMJ [fold]
recombinant human BDNF (Alomone labs) (from UniProt P23560 129-247) (ligand)	1.72	1.15	2.05	–
recombinant human NT-4 (Alomone labs) (from UniProt P34130 81-210) (ligand)	–	–	–	1.54
